Measurements published in patent US20110262358A1 (SAPPORO MEDICAL UNIVERSITY, published 2011).
Non-standard residues stand in square brackets, D forms with d. No end group written: not given here.

B1: or7c1_131(10) (peptide)
peptide: HYTV[code i]MNPQL
notes: Synthetic OR7C1-derived peptide, printed HYTViMNPQL with a lower-case i

Biological target: T1, HLA-A24 molecule (HLA-A2402) expressed on T2-A24 cells (human)
T1 construct: whole, on cells; MHC class I molecule on T2-A24 cells
Experiment: HLA-A24 stabilisation on T2A24 cells, flow cytometry with anti-HLA-A24 antibody

binding result	Binder
binds	FYGTGFGVYL [or7c1_251(10)]
binds	B1
binds	MYTMVTPML [or7c1_277(9)]
binds	TYAGCLSQIF (also called peptide 93(10)) [or7c1_93(10)]
binds	MYLVTFTGNL [or7c1_34(10)]
